Laboratory results reported in PMC6786869.

What was measured:
[1] = biological target: Als1p with the V326N mutation, V5-tagged, displayed on the surface of S. cerevisiae cells (Candida albicans) (UniProt Q5A8T4); assay: single-cell force spectroscopy (AFM); one live yeast cell on a polydopamine-coated tipless cantilever brought repeatedly into contact with another cell on a hydrophobic substrate; PBS, 20 C; 500 adhesion-rupture trials per cell pair
[2] = biological target: Wild-type Als1p (Candida albicans cell adhesion protein Als1p), V5-tagged, displayed on the surface of S. cerevisiae cells (Candida albicans) (UniProt Q5A8T4); assay: as above

| Substance | % of cell pairs binding [1] [%] | mean maximum rupture force per pair [1] [pN] | mean rupture force [1] [pN] | % of cell pairs binding [2] [%] | mean maximum rupture force per pair [2] [pN] | mean rupture force [2] [pN] |
| --- | --- | --- | --- | --- | --- | --- |
| Als1p with the V326N mutation, V5-tagged, displayed on the surface of S. cerevisiae cells (from UniProt Q5A8T4 18-1238) (natural protein) | 7 | 667 | 517 |  |  |  |
| Wild-type Als1p (Candida albicans cell adhesion protein Als1p), V5-tagged, displayed on the surface of S. cerevisiae cells (from UniProt Q5A8T4 18-1238) (natural protein) | 33 | 953 | 483 | 97 | 3330 | 1510 |
